Results taken from patent US20140377284A1 (BIOCEROX PRODUCTS B V, published 2014).
Positions count from the first letter of the chain named. Each block holds one molecule with its values, some of them ahead of it.

How the values were obtained:
[1] = target: T1, human CD134 (full-length, on cells) (human, UniProt P43489 29-277); assay: flow cytometry, PHA-stimulated human CD3+ T lymphocytes
T1 sequence: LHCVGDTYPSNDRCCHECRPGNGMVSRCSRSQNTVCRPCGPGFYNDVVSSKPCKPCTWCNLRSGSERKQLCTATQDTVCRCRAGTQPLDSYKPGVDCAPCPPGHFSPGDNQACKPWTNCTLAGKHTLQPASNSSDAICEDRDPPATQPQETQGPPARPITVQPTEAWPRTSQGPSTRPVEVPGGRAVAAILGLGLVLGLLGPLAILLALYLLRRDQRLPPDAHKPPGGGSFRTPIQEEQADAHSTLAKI

[2] = target: T1, human CD134 (full-length, on cells); assay: flow cytometry, stable CD134 293-F clone no. 5
Experimental: (§1) Full-length human CD134 (SEQ ID NO. 1) was re-cloned in a pcDNA3.1-derived expression plasmid (see Example 11 (d) below). […] After extensive washing in PBS/BSA/NaN₃, cells were subsequently incubated with 1:200 diluted PE-conjugated goat anti-mouse IgG (Fcγ specific) antibodies (Jackson ImmunoResearch) or with 1:200 diluted PE-conjugated goat anti-human IgG (Fcγ specific) antibodies (Jackson ImmunoResearch) for 30 minutes at 4° C. After extensive washing in PBS/BSA/NaN₃, cells were fixed in 2% formaldehyde in PBS/BSA/NaN₃ for 30 minutes at 4° C. Binding of antibodies was measured using flow cytometry (FACSCalibur; BD Biosciences).

[3] = target: T2, recombinant human CD134:human Fcγ (IgG1) fusion protein (human, UniProt P01857-1 100-330 = IgG part, limits assumed); assay: ELISA, plate-bound CD134:Fc 50 ng/well
T2 construct: domain: Fcγ (IgG1); Bought (R&D Systems); also called rhuCD134
T2 sequence (P01857 other isoform, or with tags, fused parts or gaps limits assumed): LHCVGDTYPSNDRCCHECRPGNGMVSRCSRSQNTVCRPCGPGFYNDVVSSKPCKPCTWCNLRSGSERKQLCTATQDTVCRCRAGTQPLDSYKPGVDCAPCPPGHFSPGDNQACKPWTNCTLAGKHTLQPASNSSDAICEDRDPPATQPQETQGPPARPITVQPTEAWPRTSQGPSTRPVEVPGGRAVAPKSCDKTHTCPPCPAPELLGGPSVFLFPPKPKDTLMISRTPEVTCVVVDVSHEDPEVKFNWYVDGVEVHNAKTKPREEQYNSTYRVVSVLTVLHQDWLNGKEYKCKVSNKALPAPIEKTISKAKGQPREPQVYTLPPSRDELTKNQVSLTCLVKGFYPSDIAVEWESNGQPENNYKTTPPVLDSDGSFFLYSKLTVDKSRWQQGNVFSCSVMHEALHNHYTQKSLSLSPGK
Experimental: Ninety six-wells flat-bottom ELISA plates (Corning) were coated with 50 ng/well recombinant human CD134:human Fcγ (IgG1) fusion protein (R&D Systems) in PBS o/n at 4° C. After extensive washing in PBS/0.05% Tween 20, plates were blocked in PBS/0.05% Tween 20/1% BSA fraction V (Roche) for 1 hour at RT. […] After extensive washing in PBS/0.05% Tween 20, binding of antibodies was determined with 1:5000 diluted horseradish peroxidase-conjugated goat anti-mouse (Fcγ specific) antibodies (Jackson ImmunoResearch) or with 1:4000 diluted horseradish peroxidase-conjugated goat anti-human κ-specific antibodies (Southern Biotech) for 1 hour at RT, followed by a ready-to-use solution of TMB substrate (Invitrogen) for colorimetric detection. After adding 1 M H₂SO₄, optical densities were measured at, a wavelength of 450 nm (reference wavelength of 655 nm) using a microplate reader (BioRad).

[4] = target: T1, human CD134 (full-length, on cells); assay: flow cytometry, stable CD134 293-F clone no. 23
Experimental: as §1

[5] = target: T1, human CD134 (full-length, on cells); assay: competition flow cytometry, stable CD134 293-F clone no. 5; competitor biotinylated mouse 12H3 at 700 ng/mL
Experimental: Full-length human CD134 (SEQ ID NO1) was re-cloned in a pcDNA3.1-derived expression plasmid (see Example 11 (c) above). […] After extensive washing in PBS/BSA/NaN₃, cells were fixed in 2% formaldehyde in PBS/BSA/NaN₃ for 30 minutes at 4° C.

[6] = target: T1, human CD134 (full-length, on cells); assay: cell-based or functional assay
[7] = target: T3, truncated human CD134 'truncated (tc) CRD4' construct (human, UniProt P43489 147-277); assay: flow cytometry, transiently transfected 293-F cells (parental 12H3: binding completely absent on tcCRD4)
T3 construct: also called truncated CRD4
T3 sequence: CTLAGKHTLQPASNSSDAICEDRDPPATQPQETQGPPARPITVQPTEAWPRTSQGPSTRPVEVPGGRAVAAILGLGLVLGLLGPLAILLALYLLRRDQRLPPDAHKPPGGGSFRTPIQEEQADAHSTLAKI
Experimental: After 48-72 h, surface human CD134 expression on transfected cells was analyzed by FACS analysis. To this end, transfected cells were harvested and put at 1-2×10⁶ cells/mL in ice-chilled PBS/BSA/NaN₃. […] After extensive washing in PBS/BSA/NaN₃, cells were subsequently incubated with 1:200 diluted PE-conjugated goat anti-human IgG (Fcγ specific) antibodies (Jackson ImmunoResearch) for 30 minutes at 4° C. After extensive washing in PBS/BSA/NaN₃, cells were fixed in 2% formaldehyde in PBS/BSA/NaN₃ for 30 minutes at 4° C. Binding of antibodies was measured using flow cytometry (FACSCalibur; BD Biosciences).

- binding result [2]: binds
- EC50 [3]: ~0.1 µg/mL
B2: humanized IgG4κ anti-human CD134 antibody clone 20E5 version 20E5_VL2VH1 (antibody, V domains shown)
VH: QVQLVQSGAEVKKPGASVKVSCKASGYTFTSYVMHWVRQAPGQRLEWMGYINPYNDGTKYNEKFKGRVTITSDTSASTAYMELSSLRSEDTAVYYCANYYGSSLSMDYWGQGTLVTVSS
VL: DIQMTQSPSSLSASVGDRVTITCRASQDISNYLNWYQQKPGKAVKLLIYYTSRLHSGVPSRFSGSGSGTDYTLTISSLQPEDFATYFCQQGNTLPWTFGQGTKVEIKR
notes: Stabilized human IgG4/κ; end of each range computed; also called 20E5_VL2H1

- binding result [2]: binds
- EC50 [3]: ~0.1 µg/mL
B3: humanized IgG4κ anti-human CD134 antibody clone 20E5 version 20E5_VL2VH2 (antibody, V domains shown)
VH: B2 VH with M48I, V68A
VL: B2 VL
notes: Stabilized human IgG4/κ; end of each range computed

- binding result [2]: binds
- EC50 [3]: ~0.1 µg/mL
B4: humanized IgG4κ anti-human CD134 antibody clone 20E5 version 20E5_VL1VH3 (antibody, V domains shown)
VH: B2 VH with M48I, V68A, I70L, T74K
VL: B2 VL with V44P, F87Y
notes: Stabilized human IgG4/κ; end of each range computed; also called 20E5_VL1H3; 2-E5_VL1VH3

- binding result [2]: binds
- EC50 [3]: ~0.1 µg/mL
B5: humanized IgG4κ anti-human CD134 antibody clone 20E5 version 20E5_VL2VH3 (antibody, V domains shown)
VH: B2 VH with M48I, V68A, I70L, T74K
VL: B2 VL
notes: as for B3

- EC50 [4]: < 0.2 µg/mL
- EC50 [3]: ~0.05 µg/mL
- IC50 [5]: ~1.5 µg/mL
B8: humanized IgG4κ anti-human CD134 antibody clone 12H3 version 12H3_VL2VH3 (antibody, V domains shown)
VH: QVQLVQSGAEVKKPGSSVKVSCKASGYTFKDYTMHWVRQAPGQGLEWIGGIYPNNGGSTYNQNFKDRATLTVDKSTSTAYMELSSLRSEDTAVYYCARMGYHGPHLDFDVWGQGTTVTVSS
VL: DIQMTQSPSSLSASVGDRVTITCKASQDVGAAVAWYQQKPGKAPKLLIYWASTRHTGVPDRFSGGGSGTDFTLTISSLQPEDFATYYCQQYINYPLTFGGGTKVEIKR
notes: as for B3

- EC50 [4]: < 0.2 µg/mL
- EC50 [3]: ~0.05 µg/mL
- IC50 [5]: ~1.5 µg/mL
B9: humanized IgG4κ anti-human CD134 antibody clone 12H3 version 12H3_VL1VH3 (antibody, V domains shown)
VH: B8 VH
VL: B8 VL with D60S, G65S
notes: Stabilized human IgG4/κ; end of each range computed; also called 12H3_VL1H3

- EC50 [4]: < 0.2 µg/mL
- EC50 [3]: ~0.05 µg/mL
- IC50 [5]: ~1.5 µg/mL
B10: humanized IgG4κ anti-human CD134 antibody clone 12H3 version 12H3_VL2VH1 (antibody, V domains shown)
VH: B8 VH with I48M, A68V, L70I, V72A
VL: B8 VL
notes: Stabilized human IgG4/κ; end of each range computed; also called 12H3_VL2H1

- EC50 [1]: ~2.5 µg/mL
B12: mouse anti-human CD134 monoclonal antibody clone 20E5 (antibody, V domains shown)
VH: EVQLQQSGPELVKPGASVKMSCKASGYTFTSYVMHWVKQKPGQGLEWIGYINPYNDGTKYNEKFKGKATLTSDKSSSTAYMELSSLTSEDSAVYYCANYYGSSLSMDYWGQGTSVTVSS
VL: DIQMTQTTSSLSASLGDRVTISCRASQDISNYLNWYQQKPDGTVKLLIYYTSRLHSGVPSRFSGSGSGTDYSLTISNLEQEDIATYFCQQGNTLPWTFGGGTKLEIKR
notes: also called m20E5; parental mouse anti-human CD134 antibody clone 20E5

Continued, molecule first:

Molecule: commercially available mouse anti-human CD134 antibody clone ACT35
- EC50 [1]: 2.5 µg/mL
- saturating concentration [1]: 5 µg/mL

B1: humanized IgG4κ anti-human CD134 antibody clone 20E5 version 20E5_VL1VH2 (antibody, V domains shown)
VH: B2 VH with M48I, V68A
VL: B2 VL with V44P, F87Y
notes: Stabilized human IgG4/κ; end of each range computed; also called 20E5_VL1H2; VL1H2
- binding result [2]: binds
- EC50 [3]: ~0.15 µg/mL

B6: humanized IgG4κ anti-human CD134 antibody clone 12H3 version 12H3_VL1VH2 (antibody, V domains shown)
VH: B8 VH with A68V, V72A
VL: B8 VL with D60S, G65S
notes: Stabilized human IgG4/κ; end of each range computed; also called 12H3_VL1H2; 2H3 VL1VH2 (SF2)
- EC50 [4]: < 0.2 µg/mL
- EC50 [3]: ~0.05 µg/mL
- IC50 [5]: ~1.5 µg/mL
- Replication Index, Treg/Teff ratio 0:1, donor 1 [6]: 13.9
- Replication Index, Treg/Teff ratio 0:1, donor 2 [6]: 12.1
- Replication Index, Treg/Teff ratio 0:1, donor 3 [6]: 10.2
- Replication Index, Treg/Teff ratio 0:1, donor 4 [6]: 10.7
- Replication Index, Treg/Teff ratio 0:1, donor 5 [6]: 8.66
- Replication Index, Treg/Teff ratio 1:2, donor 1 [6]: 5.33
- Replication Index, Treg/Teff ratio 1:2, donor 2 [6]: 5.82
- Replication Index, Treg/Teff ratio 1:2, donor 3 [6]: 6
- Replication Index, Treg/Teff ratio 1:2, donor 4 [6]: 6.05
- Replication Index, Treg/Teff ratio 1:2, donor 5 [6]: 4.71
- Replication Index, Treg/Teff ratio 1:4, donor 1 [6]: 5.23
- Replication Index, Treg/Teff ratio 1:4, donor 2 [6]: 5.21
- Replication Index, Treg/Teff ratio 1:4, donor 3 [6]: 5.23
- Replication Index, Treg/Teff ratio 1:4, donor 4 [6]: 5.51
- Replication Index, Treg/Teff ratio 1:4, donor 5 [6]: 4.81

B7: humanized IgG4κ anti-human CD134 antibody clone 12H3 version 12H3_VL2VH2 (antibody, V domains shown)
VH: B8 VH with A68V, V72A
VL: B8 VL
notes: Stabilized human IgG4/κ; end of each range computed; also called 12H3_VL2H2
- EC50 [4]: < 0.2 µg/mL
- EC50 [3]: ~0.05 µg/mL
- IC50 [5]: ~1.5 µg/mL

B11: humanized IgG4κ anti-human CD134 antibody clone 12H3 version 12H3_VL1VH1 (antibody, V domains shown)
VH: B8 VH with I48M, A68V, L70I, V72A
VL: B8 VL with D60S, G65S
notes: Stabilized human IgG4 (Angal et al.)/κ; also called 12H3_VL1H1
- EC50 [4]: < 0.2 µg/mL
- EC50 [3]: ~0.05 µg/mL
- IC50 [5]: ~1.5 µg/mL

B13: chimeric human IgG1κ anti-human CD134 monoclonal antibody clone 12H3 (antibody, V domains shown)
VH: EVQLQQSGPELVKPGASVKISCKTSGYTFKDYTMHWVKQSHGKSLEWIGGIYPNNGGSTYNQNFKDKATLTVDKSSSTAYMEFRSLTSEDSAVYYCARMGYHGPHLDFDVWGAGTTVTVSP
VL: DIVMTQSHKFMSTSLGDRVSITCKASQDVGAAVAWYQQKPGQSPKLLIYWASTRHTGVPDRFTGGGSGTDFTLTISNVQSEDLTDYFCQQYINYPLTFGGGTKLEIKR
notes: Human IgG1/kappa constant regions
- binding result [7]: no binding (tested: 20.0 µg/mL)
